First the molecules themselves.
B1: ScCdc14^1-449 (Saccharomyces cerevisiae S288C) (protein)
chain: MRRSVYLDNTIEFLRGRVYLGAYDYTPEDTDELVFFTVEDAIFYNSFHLDFGPMNIGHLYRFAVIFHEILNDPENANKAVVFYSSASTRQRANAACMLCCYMILVQAWTPHQVLQPLAQVDPPFMPFRDAGYSNADFEITIQDVVYGVWRAKEKGLIDLHSFNLESYEKYEHVEFGDFNVLTPDFIAFASPQEDHPKGYLATKSSHLNQPFKSVLNFFANNNVQLVVRLNSHLYNKKHFEDIGIQHLDLIFEDGTCPDLSIVKNFVGAAETIIKRGGKIAVHCKAGLGRTGCLIGAHLIYTYGFTANECIGFLRFIRPGMVVGPQQHWLYLHQNDFREWKYTTRISLKPSEAIGGLYPLISLEEYRLQKKKLKDDKRVAQNNIEGELRDLTMTPPSNGHGALSARNSSQPSTANNGSNSFKSSAVPQTSPGQPRKGQNGSNTIEDINNN
B2: ScCdc14^Q432N (Saccharomyces cerevisiae S288C; Q432N) (protein)
chain: MRRSVYLDNTIEFLRGRVYLGAYDYTPEDTDELVFFTVEDAIFYNSFHLDFGPMNIGHLYRFAVIFHEILNDPENANKAVVFYSSASTRQRANAACMLCCYMILVQAWTPHQVLQPLAQVDPPFMPFRDAGYSNADFEITIQDVVYGVWRAKEKGLIDLHSFNLESYEKYEHVEFGDFNVLTPDFIAFASPQEDHPKGYLATKSSHLNQPFKSVLNFFANNNVQLVVRLNSHLYNKKHFEDIGIQHLDLIFEDGTCPDLSIVKNFVGAAETIIKRGGKIAVHCKAGLGRTGCLIGAHLIYTYGFTANECIGFLRFIRPGMVVGPQQHWLYLHQNDFREWKYTTRISLKPSEAIGGLYPLISLEEYRLQKKKLKDDKRVAQNNIEGELRDLTMTPPSNGHGALSARNSSQPSTANNGSNSFKSSAVPQTSPGNPRKGQNGSNTIEDINNN
B3: ScCdc14^Q432E (Saccharomyces cerevisiae S288C; Q432E) (protein)
chain: MRRSVYLDNTIEFLRGRVYLGAYDYTPEDTDELVFFTVEDAIFYNSFHLDFGPMNIGHLYRFAVIFHEILNDPENANKAVVFYSSASTRQRANAACMLCCYMILVQAWTPHQVLQPLAQVDPPFMPFRDAGYSNADFEITIQDVVYGVWRAKEKGLIDLHSFNLESYEKYEHVEFGDFNVLTPDFIAFASPQEDHPKGYLATKSSHLNQPFKSVLNFFANNNVQLVVRLNSHLYNKKHFEDIGIQHLDLIFEDGTCPDLSIVKNFVGAAETIIKRGGKIAVHCKAGLGRTGCLIGAHLIYTYGFTANECIGFLRFIRPGMVVGPQQHWLYLHQNDFREWKYTTRISLKPSEAIGGLYPLISLEEYRLQKKKLKDDKRVAQNNIEGELRDLTMTPPSNGHGALSARNSSQPSTANNGSNSFKSSAVPQTSPGEPRKGQNGSNTIEDINNN
B4: ScCdc14^P433A/K435A (Saccharomyces cerevisiae S288C; K435A/P433A) (protein)
chain: MRRSVYLDNTIEFLRGRVYLGAYDYTPEDTDELVFFTVEDAIFYNSFHLDFGPMNIGHLYRFAVIFHEILNDPENANKAVVFYSSASTRQRANAACMLCCYMILVQAWTPHQVLQPLAQVDPPFMPFRDAGYSNADFEITIQDVVYGVWRAKEKGLIDLHSFNLESYEKYEHVEFGDFNVLTPDFIAFASPQEDHPKGYLATKSSHLNQPFKSVLNFFANNNVQLVVRLNSHLYNKKHFEDIGIQHLDLIFEDGTCPDLSIVKNFVGAAETIIKRGGKIAVHCKAGLGRTGCLIGAHLIYTYGFTANECIGFLRFIRPGMVVGPQQHWLYLHQNDFREWKYTTRISLKPSEAIGGLYPLISLEEYRLQKKKLKDDKRVAQNNIEGELRDLTMTPPSNGHGALSARNSSQPSTANNGSNSFKSSAVPQTSPGQARAGQNGSNTIEDINNN
B5: ScCdc14^Q432A (Saccharomyces cerevisiae S288C; Q432A) (protein)
chain: MRRSVYLDNTIEFLRGRVYLGAYDYTPEDTDELVFFTVEDAIFYNSFHLDFGPMNIGHLYRFAVIFHEILNDPENANKAVVFYSSASTRQRANAACMLCCYMILVQAWTPHQVLQPLAQVDPPFMPFRDAGYSNADFEITIQDVVYGVWRAKEKGLIDLHSFNLESYEKYEHVEFGDFNVLTPDFIAFASPQEDHPKGYLATKSSHLNQPFKSVLNFFANNNVQLVVRLNSHLYNKKHFEDIGIQHLDLIFEDGTCPDLSIVKNFVGAAETIIKRGGKIAVHCKAGLGRTGCLIGAHLIYTYGFTANECIGFLRFIRPGMVVGPQQHWLYLHQNDFREWKYTTRISLKPSEAIGGLYPLISLEEYRLQKKKLKDDKRVAQNNIEGELRDLTMTPPSNGHGALSARNSSQPSTANNGSNSFKSSAVPQTSPGAPRKGQNGSNTIEDINNN
B6: hCdc14B^Q390A (Homo sapiens; Q390A) (protein)
chain: MSREGAGAALVAEVIKDRLCFAILYSRPKSASNVHYFSIDNELEYENFYADFGPLNLAMVYRYCCKINKKLKSITMLRKKIVHFTGSDQRKQANAAFLVGCYMVIYLGRTPEEAYRILIFGETSYIPFRDAAYGSCNFYITLLDCFHAVKKAMQYGFLNFNSFNLDEYEHYEKAENGDLNWIIPDRFIAFCGPHSRARLESGYHQHSPETYIQYFKNHNVTTIIRLNKRMYDAKRFTDAGFDHHDLFFADGSTPTDAIVKEFLDICENAEGAIAVHCKAGLGRTGTLIACYIMKHYRMTAAETIAWVRICRPGSVIGPQQQFLVMKQTNLWLEGDYFRQKLKGQENGQHRAAFSKLLSGVDDISINGVENQDQQEPEPYSDDDEINGVTAGDRLRALKSRRQSKTNAIPLT
notes: codons 1-411; N-terminal GST; expressed in E. coli
B7: ScCdc14^1-374 (Saccharomyces cerevisiae S288C) (protein)
chain: MRRSVYLDNTIEFLRGRVYLGAYDYTPEDTDELVFFTVEDAIFYNSFHLDFGPMNIGHLYRFAVIFHEILNDPENANKAVVFYSSASTRQRANAACMLCCYMILVQAWTPHQVLQPLAQVDPPFMPFRDAGYSNADFEITIQDVVYGVWRAKEKGLIDLHSFNLESYEKYEHVEFGDFNVLTPDFIAFASPQEDHPKGYLATKSSHLNQPFKSVLNFFANNNVQLVVRLNSHLYNKKHFEDIGIQHLDLIFEDGTCPDLSIVKNFVGAAETIIKRGGKIAVHCKAGLGRTGCLIGAHLIYTYGFTANECIGFLRFIRPGMVVGPQQHWLYLHQNDFREWKYTTRISLKPSEAIGGLYPLISLEEYRLQKKKLKD
B8: hCdc14B^1-411 (Homo sapiens) (protein)
chain: DRLCFAILYSRPKSASNVHYFSIDNELEYENFYADFGPLNLAMVYRYCCKINKKLKSITMLRKKIVHFTGSDQRKQANAAFLVGCYMVIYLGRTPEEAYRILIFGETSYIPFRDAAYGSCNFYITLLDCFHAVKKAMQYGFLNFNSFNLDEYEHYEKAENGDLNWIIPDRFIAFCGPHSRARLESGYHQHSPETYIQYFKNHNVTTIIRLNKRMYDAKRFTDAGFDHHDLFFADGSTPTDAIVKEFLDICENAEGAIAVHCKAGLGRTGTLIACYIMKHYRMTAAETIAWVRICRPGSVIGPQQQFLVMKQTNLWLEGDYFRQKLKGQENGQHRAAFSKLLSGVDDISINGVENQDQQEPEPYSDDDEINGVTQGDRLRALKSRRQSKTNAIPLT
notes: as for B6
B9: ScCdc14^S429E (Saccharomyces cerevisiae S288C; S429E) (protein)
chain: MRRSVYLDNTIEFLRGRVYLGAYDYTPEDTDELVFFTVEDAIFYNSFHLDFGPMNIGHLYRFAVIFHEILNDPENANKAVVFYSSASTRQRANAACMLCCYMILVQAWTPHQVLQPLAQVDPPFMPFRDAGYSNADFEITIQDVVYGVWRAKEKGLIDLHSFNLESYEKYEHVEFGDFNVLTPDFIAFASPQEDHPKGYLATKSSHLNQPFKSVLNFFANNNVQLVVRLNSHLYNKKHFEDIGIQHLDLIFEDGTCPDLSIVKNFVGAAETIIKRGGKIAVHCKAGLGRTGCLIGAHLIYTYGFTANECIGFLRFIRPGMVVGPQQHWLYLHQNDFREWKYTTRISLKPSEAIGGLYPLISLEEYRLQKKKLKDDKRVAQNNIEGELRDLTMTPPSNGHGALSARNSSQPSTANNGSNSFKSSAVPQTEPGQPRKGQNGSNTIEDINNN

Substrate in the first data set: Cc1cc(=O)oc2c(F)c(OP(=O)(O)O)c(F)cc12
Experiment: not given
The settings on record: pH 7.5; 30.0 °C. Format: biochemical. From the text:
Enzym e kcat (sec-1) KM (µM)
On to B1, for which the Km came to 8.4 µM.
Consider B2, for which the Km was 0.92 µM.
Same read-out and setting: in the case of B3 it was 1.11 µM; in that of B4, 1.0 µM; in that of B5, 0.72 µM.
Regarding B6, the Km amounted to 2.88 µM.
Same read-out and setting: in the case of B7 it was 0.76 µM.
Same read-out and setting: in the case of B8 it was 46 µM.

Substrate in a further data set: Cc1cc(=O)oc2c(F)c(OP(=O)(O)O)c(F)cc12
Kind of data set: purified protein, by the assay type. The settings on record: pH 7.5; 30.0 °C.
Protocol: Data from velocity versus substrate concentration plots were fit with the Michaelis–Menten equation in GraphPad Prism (https://www.graphpad.com/) to determine steady-state kinetic parameters kcat and KM. For trans peptide stimulation assays, DiFMUP was used at a single concentration well above the measured KM for each enzyme. […] (where pS is phosphoSer), were assayed in Cdc14 reaction buffer with Biomol Green (Enzo Life Science) detection of released inorganic phosphate as previously described ([29]). Data were fit with a modified Michaelis–Menten equation including a substrate inhibition term in Prism.
After removing the Cdk1-bound affinity resin, we measured effects on Cdc14 steady-state kinetic parameters with DiFMUP.
Values are means of at least six independent measurements and error bars are SDs.
B1: the Km was found to be 25 µM.
On the same count and under the same terms, in the case of B9 it was 3.3 µM.
